The values below come from paper PMC10063552, “Utilizing genetic code expansion to modify N-TIMP2 specificity towards MMP-2, MMP-9, and MMP-14” (Scientific Reports, 2023).

What all share (assay): enzyme inhibition assay (cleavage of a chromogenic substrate, fit to Morrison's tight binding equation); MMP-2ACT (0.6 nM), MMP-9CAT (3 nM) or MMP-14CAT (1 nM) incubated with 0-25 nM N-TIMP2 variant in 50 mM HEPES, 10 mM CaCl2, 0.05% Brij-35, 1 mM DTNB, pH 7.5, 1 h at 37 °C; then 100 µM chromogenic substrate, absorbance at 412 nm at 37 °C; Ki from three independent experiments
Holding throughout (settings): both partners purified

Assay [1] has as its target T1, activated MMP-2 (MMP-2ACT) (human, APMA-activated in vitro (propeptide 30-109 removed); catalytic Zn2+, structural Zn2+ and Ca2+ ions. Limits are not printed: full-length active chain taken from the UniProt feature. The tables label it).
T1 chain: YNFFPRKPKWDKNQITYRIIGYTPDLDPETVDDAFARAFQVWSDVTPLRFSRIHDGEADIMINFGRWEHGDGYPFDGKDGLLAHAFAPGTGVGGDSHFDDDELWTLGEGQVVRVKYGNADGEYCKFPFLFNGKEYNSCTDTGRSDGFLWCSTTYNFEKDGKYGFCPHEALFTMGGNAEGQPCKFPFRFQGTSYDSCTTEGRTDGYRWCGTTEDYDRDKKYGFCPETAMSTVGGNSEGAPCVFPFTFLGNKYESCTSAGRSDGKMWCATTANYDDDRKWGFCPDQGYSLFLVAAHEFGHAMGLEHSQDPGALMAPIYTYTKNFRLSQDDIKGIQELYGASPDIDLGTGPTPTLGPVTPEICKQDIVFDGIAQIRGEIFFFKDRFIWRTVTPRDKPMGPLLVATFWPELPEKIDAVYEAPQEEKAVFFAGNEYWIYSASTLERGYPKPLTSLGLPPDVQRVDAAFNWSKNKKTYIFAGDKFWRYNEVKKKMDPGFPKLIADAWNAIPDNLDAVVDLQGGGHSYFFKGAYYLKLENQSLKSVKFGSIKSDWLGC

Assay [2] concerns the target T2, human MMP-9 catalytic domain (MMP-9CAT) (human, UniProt P14780 107-215; P14780 391-443).
T2 construct: Matrix metalloproteinase-9 (MMP-9), human, catalytic domain, first stretch, residues 107-215; Matrix metalloproteinase-9 (MMP-9), human, catalytic domain, second stretch, residues 391-443 (residues 216-390 left out); no linker between the two stretches is stated
T2 chain (looked up): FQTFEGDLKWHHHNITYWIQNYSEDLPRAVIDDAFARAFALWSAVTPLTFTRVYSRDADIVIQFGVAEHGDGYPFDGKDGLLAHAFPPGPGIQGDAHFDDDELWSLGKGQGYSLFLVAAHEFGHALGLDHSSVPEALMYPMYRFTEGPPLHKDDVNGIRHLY

The target of assay [3] is T3, human MMP-14 catalytic domain (MMP-14CAT) (human, UniProt P50281 112-292).
T3 construct: Matrix metalloproteinase-14 (MMP-14), human, catalytic domain, residues 112-292

B1: N-terminal domain of TIMP2 (N-TIMP2), wild type (domain or fragment, human, UniProt P16035 27-153, looked up)
chain: CSCSPVHPQQAFCNADVVIRAKAVSEKEVDSGNDIYGNPIKRIQYEIKQIKMFKGPEKDIEFIYTAPSSAVCGVSLDVGGKKEYLIAGKAEGDGKMHITLCDFIVPWDTLSTTQKKSLNHRYQMGCE
notes: numbers count on: the mature protein (Cys1 is the N-terminal residue); Cloned into the pMECS vector; also called wild-type N-TIMP2; parental N-TIMP2; source: E. coli WK6, periplasmic extract, purified (Ni-NTA)
B1: the Ki (as a rule, the equilibrium dissociation constant of an inhibitor or competing ligand from its target) in assay [1] was determined as 0.233 nM; in assay [2] it was 0.322 nM; in assay [3] it was 0.711 nM.
